Assay results: US20220098240A1 (FUJIFILM, published 2022)
Bridge positions count the residues as written; N and C are the ends. Square brackets hold non-standard residues; d marks the D form. Ends that are not written are not given here. COCH2 = acetyl group that carries the bridge; hCys = N[C@@H](CCS)C(=O)O; Orn = NCCC[C@H](N)C(=O)O; Dab = NCC[C@H](N)C(=O)O; Dap = NC[C@H](N)C(=O)O

Columns and labels:
human integrin αvβ5 [1] = target: T1, human integrin αvβ5 (human, UniProt P06756 31-992; P18084 24-719); assay: SPR, Biacore 3000, peptide immobilised on CM5 chip, integrin 30-1000 nM flowed; grade B = dissociation constant more than 50 nM and 100 nM or less
T1 construct: soluble analyte in SPR at 30, 100, 300 and 1,000 nM in HEPES buffer with 5 mM magnesium chloride; heterodimer of an alpha and a beta chain
T1 sequence (P06756 31-992, chain 1 of 2): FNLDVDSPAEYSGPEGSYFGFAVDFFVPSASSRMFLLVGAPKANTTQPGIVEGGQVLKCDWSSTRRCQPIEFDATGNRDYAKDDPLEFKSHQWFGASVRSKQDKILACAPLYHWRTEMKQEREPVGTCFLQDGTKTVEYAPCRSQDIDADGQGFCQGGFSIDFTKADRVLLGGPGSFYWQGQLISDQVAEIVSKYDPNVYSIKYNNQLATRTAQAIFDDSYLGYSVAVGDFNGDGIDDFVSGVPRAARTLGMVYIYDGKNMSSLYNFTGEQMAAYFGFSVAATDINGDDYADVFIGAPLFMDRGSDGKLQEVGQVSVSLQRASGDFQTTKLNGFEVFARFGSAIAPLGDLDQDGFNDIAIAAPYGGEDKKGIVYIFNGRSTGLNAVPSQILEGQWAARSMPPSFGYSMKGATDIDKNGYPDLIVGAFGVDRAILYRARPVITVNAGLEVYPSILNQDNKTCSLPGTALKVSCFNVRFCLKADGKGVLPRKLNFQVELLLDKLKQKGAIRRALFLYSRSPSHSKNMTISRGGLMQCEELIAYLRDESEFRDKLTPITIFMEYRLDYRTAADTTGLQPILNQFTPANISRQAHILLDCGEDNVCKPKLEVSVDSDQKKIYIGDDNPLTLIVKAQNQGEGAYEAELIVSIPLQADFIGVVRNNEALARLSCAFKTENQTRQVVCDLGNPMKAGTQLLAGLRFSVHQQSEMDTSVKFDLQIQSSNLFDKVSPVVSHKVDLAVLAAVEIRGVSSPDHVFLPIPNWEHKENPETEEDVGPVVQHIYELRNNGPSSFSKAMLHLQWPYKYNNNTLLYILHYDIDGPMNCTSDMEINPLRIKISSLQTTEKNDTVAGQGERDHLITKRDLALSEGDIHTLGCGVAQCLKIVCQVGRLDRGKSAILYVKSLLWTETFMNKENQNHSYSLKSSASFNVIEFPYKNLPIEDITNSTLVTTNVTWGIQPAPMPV
T1 sequence (P18084 24-719, chain 2 of 2): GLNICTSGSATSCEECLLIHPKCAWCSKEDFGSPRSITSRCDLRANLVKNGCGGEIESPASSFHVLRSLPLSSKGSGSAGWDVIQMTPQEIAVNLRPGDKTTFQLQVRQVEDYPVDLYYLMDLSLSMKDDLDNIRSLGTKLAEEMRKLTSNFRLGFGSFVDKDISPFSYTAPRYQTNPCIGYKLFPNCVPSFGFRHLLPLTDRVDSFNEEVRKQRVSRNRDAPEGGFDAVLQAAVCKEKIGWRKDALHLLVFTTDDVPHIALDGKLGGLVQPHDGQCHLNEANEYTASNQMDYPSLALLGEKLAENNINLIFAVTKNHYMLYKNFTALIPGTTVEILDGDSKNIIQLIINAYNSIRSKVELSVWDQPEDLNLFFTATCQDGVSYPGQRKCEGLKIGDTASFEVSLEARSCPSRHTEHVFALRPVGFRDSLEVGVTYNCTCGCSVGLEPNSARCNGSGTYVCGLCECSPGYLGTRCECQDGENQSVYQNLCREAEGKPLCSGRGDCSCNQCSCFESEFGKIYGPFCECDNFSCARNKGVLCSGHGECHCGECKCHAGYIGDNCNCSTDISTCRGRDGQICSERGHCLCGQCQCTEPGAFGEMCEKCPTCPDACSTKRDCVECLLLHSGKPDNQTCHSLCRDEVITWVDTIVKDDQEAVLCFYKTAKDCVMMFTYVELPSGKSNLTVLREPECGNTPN
Protocol: (§1) However, only for the cyclic peptide 22, in which the number of lysine residues having an amino group as the immobilizing functional group was 1, the sample solution to be supplied to the sensor chip was set to 5,000 μL instead of 300 μL. Similarly, 70 μL of the mixed aqueous solution of 0.2 M EDC and 0.04 M NHS was added to another flow channel of the same sensor chip without immobilizing the sample, and then blocking treatment and washing treatment were carried out. Hereinafter, the obtained immobilization-treated sensor chip is referred to as an “immobilization-treated sensor chip A”.
(§2) After adding human integrin αvβ5 for 10 minutes at 25° C., which was diluted to 30 nM using a HEPES buffer solution to which magnesium chloride was added to 5 mM, in each flow channel of the immobilization-treated sensor chip A prepared in (1) above, the same HEPES buffer solution (containing 5 mM magnesium chloride) was allowed to flow as a running buffer for 30 minutes, and measurement was carried out with Biacore 3000.
(§3) Then, a regeneration treatment of removing human integrin αvβ5 was carried out by allowing a 0.5 M EDTA aqueous solution to flow through each flow channel for 10 minutes. Further, the above-described measurement process consisting of adding integrin for 10 minutes, allowing a running buffer to flow for 30 minutes, carrying out measurement with Biacore 3000, and carrying out regeneration treatment with 0.5 M EDTA aqueous solution was carried out in the same manner for 100 nM human integrin αvβ5, 300 nM human integrin αvβ5, and 1,000 nM human integrin αvβ5. Dissociation constant between the cyclic peptide and human integrin αvβ5 was calculated from the difference between the value measured by Biacore 3000 in the flow channel immobilized with the cyclic peptide and the value measured by Biacore 3000 in the flow channel unimmobilized with the cyclic peptide, in a case where each concentration of human integrin αvβ5 was allowed to flow, and the integrin binding property was evaluated according to the following evaluation standards. It is preferable that the evaluation result satisfies the evaluation standard A, B, or C.

human integrin αvβ5 [2] = target: T1, human integrin αvβ5; assay: SPR, Biacore 3000, peptide immobilised on CM5 chip, integrin 30-1000 nM flowed; grade C = dissociation constant more than 100 nM and 200 nM or less
Protocol: as §1, §2
as §3, with “It is preferable that the evaluation result satisfies the evaluation standard A, B, or C.” left out

B1: Cyclic peptide 19 (peptide)
peptide: {CH2CO}-I[hCys]RGD[Dab](COCH2)FCKKK
modifications: thioether 2-6 via Ac; thioether N-8; not fully specified
notes: bicyclic; all residues L; immobilised on CM5 chip through amino groups
dissociation constant (KD) (human integrin αvβ5 [1]): 50 to 100 nM

B2: Cyclic peptide 6 (peptide)
peptide: {CH2CO}-ICRGD[Dap](COCH2)FCKKK
modifications: thioether 2-6 via Ac; thioether N-8
notes: as for B1
dissociation constant (KD) (human integrin αvβ5 [2]): 100 to 200 nM

B3: Cyclic peptide 13 (peptide)
peptide: XXRGDXFCKKK
modifications: not fully specified; thioether: I1 alpha-NH2 through acetyl to C8; thioether: Dap(acetyl)2 to Hcy6
notes: as for B1
dissociation constant (KD) (human integrin αvβ5 [1]): 50 to 100 nM

{CH2CO}-I[hCys]RGDK(COCH2)FR[hCys]KKK (thioether 2-6, N-9) [Cyclic peptide 33]
dissociation constant (human integrin αvβ5 [2]): 100 to 200 nM

B4: Cyclic peptide 10 (peptide)
peptide: ICRGD[Orn]FCKKK
modifications: bridge N-8, 2-6; not fully specified (residue 6, N-terminus, bridges)
notes: as for B1
dissociation constant (KD) (human integrin αvβ5 [1]): 50 to 100 nM

{CH2CO}-I[hCys]RGD[Orn](COCH2)F[hCys]KKK (thioether 2-6, N-8) [Cyclic peptide 9]
dissociation constant (KD) (human integrin αvβ5 [1]): 50 to 100 nM

B5: Cyclic peptide 7 (peptide)
peptide: {CH2CO}-I[hCys]RGD[Dab]F[hCys]KKK
modifications: thioether N-8; bridge 2-6; not fully specified (residue 6, bridges); printed as I- -RGD F-(Hcy)-KKK
dissociation constant (KD) (human integrin αvβ5 [1]): 50 to 100 nM

{CH2CO}-I[Dab](COCH2)RGD[hCys]F[hCys]KKK (thioether 2-6, N-8) [Cyclic peptide 2]
dissociation constant (KD) (human integrin αvβ5 [2]): 100 to 200 nM
